# Measured values: patent US20040167074A1, “Therapeutic applications of mFLINT polypeptides” (priority 1998, published 2004)
# T1: FasL (Homo sapiens, UniProt P48023)
# T1 construct: purchased Kamiya Biomedical Company
# T1 sequence (P48023 130-281 limits assumed): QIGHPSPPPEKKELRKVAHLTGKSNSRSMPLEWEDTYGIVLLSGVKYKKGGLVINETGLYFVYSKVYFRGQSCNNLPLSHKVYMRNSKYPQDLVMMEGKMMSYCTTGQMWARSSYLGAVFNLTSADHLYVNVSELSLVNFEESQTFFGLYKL
# B1: mFLINT: mature FLINT without leader peptide (FIG. 3), soluble TNFR superfamily member, made according to Examples 8 and 9 (protein)
# chain: VAETPTYPWRDAETGERLVCAQCPPGTFVQRPCRRDSPTTCGPCPPRHYTQFWNYLERCRYCNVLCGEREEEARACHATHNRACRCRTGFFAHAGFCLEHASCPPGAGVIAPGTPSQNTQCQPCPPGTFSASSSSSEQCQPHRNCTALGLALNVPGSSSHDTLCTSCTGFPLSTRVPGAEECERAVIDFVAFQDISIKRLQRLLQALEAPEGWGPTPRAGRAALQLKLRRRLTELLGAQDGALLVRLLQALRVARMPGLERSVRERFLPVH
# modifications: glycosylated
# How the values were obtained:
# FasL = biological target: T1, FasL; test: BiaCore real-time biomolecular interaction analysis (surface plasmon resonance); type: binding
# Excerpt: FLINT-Fas L binding may be confirmed and specifics of binding determined (e.g., kinetics, specificity, affinity, cooperativity, relative binding pattern, concentration) using real-time biomolecular interaction analysis. This technology confers the ability to study biomolecular interactions in real time, without labeling any of the interactants. In particular, it takes advantage of the optical phenomenon surface plasmon resonance, and detection depends on changes in the mass concentration of macromolecules at the biospecific interface. Interactions are followed in real time, so that kinetic information is readily derived. In many cases, investigations can be performed without prior purification of components.
# Measurements are accomplished using a BiaCore 2000 instrument. The instrument, accompanying chips, immobilization and maintenance kits and buffers are obtained from Biacore AB, Rapsgatan 7, S-754 50 Uppsala, Sweden. FasL is obtained from Kamiya Biomedical Company, 910 Industry Drive, Seattle, Wash. 98188, Guanidine Isothiocyanate Solution from GibcoBRL, and mFLINT is prepared as in Examples 8 and 9.
# Experiments using immobilized FasL loaded with a solution containing mFLINT. […] This is explained by the fact that FasL is a trimer, yet here FasL monomer was bound. Further experiments utilized bound FLINT with FasL in solution, allowing for trimer formation. […] This observations indicate that FLINT should effectively compete with Fas for FasL binding, which likely explains the therapeutic benefit observed in experiments detailed below.
# LIGHT = LIGHT cell surface binding assay by flow cytometry; conditions: LIGHT expressing cells preincubated with 10 fold excess of non tagged mFLINT
# Protocol: To confirm the dot blot binding between LIGHT and mFLINT, 293 cells were transiently transfected with LIGHT expression construct overnight. On the next day, cells were detached and incubated with mFLINT-Flag on ice. […] As a control we used vector transfected cells. To make sure that the binding was specific, a competition assay with 10 fold access of untagged mFLINT was performed.
# More particularly, 6 well dishes of cells were transfected as above. Both vector and m-LIGHT expressing cells were provided. Cells were detached from the plates by vigorous pipetting with a P100 Pipettor. Then, in PBS/BSA, 0.1%, cells were exposed to one of the following combinations, set forth in a-d.
# a. GST/flag, mFLINT/flag, or HVEM at 20 nM;
# b. FLINT/flag at 20 nM+GST/flag or mFLINT or HVEM at 200 nM;
# c. FLINT/flag at 20 nM+HVEM+anti-human FAS ligand at 200 n-M;
# d. anti-human FAS ligand-biotin at 1 μg/ml
# Cells were incubated on ice for 30 minutes and washed with PBS/BSA, 0.1%. Cells then were exposed either to anti-human IgG-biotin, 1 μg/ml (for detection of HVEM), or to M2-biotin, 2 μg/ml (for detection of flag conjugates). Cells were incubated on ice for 30 minutes and washed with PBS/BSA, 0.1%. Thereafter, cells were exposed to streptavidin Alexa 488 (SIGMA) at a 1:1000 dilution. Again, cells were incubated on ice for 30 minutes and washed with PBS/BSA, 0.1 1%. Cells were analyzed using a FACSORT flow cytometer (Decton Dickinson) to determine binding.
molecule,measurement,setting,value
B1,KD for FLINT-FasL relative to immobilized-FasL experiment,"FasL; bound FLINT with FasL in solution, allowing trimer formation",2 orders of magnitude better
same,Kd,"FasL; immobilized FasL (monomer bound), analyte in solution",113 nM
same,competition of mFLINT-Flag binding,LIGHT,completely reversed to baseline peak
